Assay results taken from patent publication US20230135471A1, “UBIQUITIN VARIANTS WITH IMPROVED AFFINITY FOR 53BP1” (Integrated DNA Technologies, Inc., priority 2021, published 2023).

Each substance was assayed against 53BP1 fragment (a.a. 1221-1718) fused to an adenylate cyclase fragment (two-hybrid) (UniProt Q12888) (assay: cell-based or functional assay).

Row | Substance | Experiment 1 Average Enrichment [log2] | Experiment 1 Rep 1 Enrichment [log2] | Experiment 1 Rep 2 Enrichment [log2] | Experiment 2 Average Enrichment [log2] | Experiment 2 Rep 1 Enrichment [log2] | Experiment 2 Rep 2 Enrichment [log2] | Percent GFP Positive Rep 1 [%] | Percent GFP Positive Rep 2 [%] | Percent GFP Positive Rep 3 [%]
1 | i53 + S57N two-hybrid fusion (designed binder) | 1.34 | 1.72 | 0.96 | 0.69 | 0.82 | 0.56 | – | – | –
2 | i53 + S57H two-hybrid fusion (designed binder) | 0.72 | 0.54 | 0.9 | 0.17 | -0.04 | 0.39 | – | – | –
3 | i53 + Q40D two-hybrid fusion (designed binder) | -0.31 | 0.13 | -0.75 | 0.8 | 1.27 | 0.33 | – | – | –
4 | i53 + T9I two-hybrid fusion (designed binder) | 0.46 | 0.3 | 0.61 | 0.25 | -0.01 | 0.52 | – | – | –
5 | i53 + S57R two-hybrid fusion (designed binder) | 0.02 | 0.05 | -0.01 | -0.18 | -0.32 | -0.03 | – | – | –
6 | i53 + K33R two-hybrid fusion (designed binder) | 0.42 | 0.73 | 0.1 | 0.37 | 0.64 | 0.1 | – | – | –
7 | i53 + E18L two-hybrid fusion (designed binder) | 0.75 | 0.75 | 0.76 | 0.66 | 0.62 | 0.71 | – | – | –
8 | i53 + E16D two-hybrid fusion (designed binder) | -0.2 | -0.69 | 0.3 | 0.13 | 0.42 | -0.15 | – | – | –
9 | i53 + S49P two-hybrid fusion (designed binder) | 0.78 | 0.65 | 0.91 | 0.58 | 0.71 | 0.44 | – | – | –
10 | i53 + Q31M two-hybrid fusion (designed binder) | -1.74 | -0.84 | -2.63 | 0.07 | -0.05 | 0.18 | – | – | –
11 | i53 + N25R two-hybrid fusion (designed binder) | 0.31 | 0.25 | 0.36 | 0.29 | 0.25 | 0.34 | – | – | –
12 | i53 + D39S two-hybrid fusion (designed binder) | -1.51 | -2.04 | -0.99 | 0.04 | 0.16 | -0.08 | – | – | –
13 | i53 + S20N two-hybrid fusion (designed binder) | 0.31 | 0 | 0.61 | -0.25 | 0.12 | -0.61 | – | – | –
14 | i53 + N60Q two-hybrid fusion (designed binder) | 0.08 | 0.13 | 0.03 | 0.29 | 0.01 | 0.58 | – | – | –
15 | i53 + E18F two-hybrid fusion (designed binder) | 0.51 | 0.09 | 0.93 | 0.54 | 0.22 | 0.87 | – | – | –
16 | i53 + K48Q two-hybrid fusion (designed binder) | 0.55 | 0.59 | 0.51 | 0.34 | 0.2 | 0.47 | – | – | –
17 | i53 + M1F two-hybrid fusion (designed binder) | 0.8 | 0.71 | 0.9 | 0.36 | 0.39 | 0.33 | – | – | –
18 | i53 + S49L two-hybrid fusion (designed binder) | 1 | 0.85 | 1.15 | 0.88 | 0.97 | 0.8 | 18.8 | 13.6 | 17.7

Row | Substance | Experiment 1 Average Enrichment [log2] | Experiment 1 Rep 1 Enrichment [log2] | Experiment 1 Rep 2 Enrichment [log2] | Experiment 2 Average Enrichment [log2] | Experiment 2 Rep 1 Enrichment [log2] | Experiment 2 Rep 2 Enrichment [log2] | Percent GFP Positive Rep 1 [%] | Percent GFP Positive Rep 2 [%] | Percent GFP Positive Rep 3 [%]
19 | i53 + N60E two-hybrid fusion (designed binder) | 0.66 | 0.9 | 0.43 | 0.25 | 0.13 | 0.38 | – | – | –
20 | i53 + P38S two-hybrid fusion (designed binder) | 0.22 | 0.19 | 0.25 | 0.27 | 0.56 | -0.02 | – | – | –
21 | i53 + K29M two-hybrid fusion (designed binder) | 1.6 | 1.72 | 1.48 | 0.9 | 1.23 | 0.57 | 23.9 | 16.5 | 17.8
22 | i53 + T9V two-hybrid fusion (designed binder) | 0.06 | 0.32 | -0.21 | -0.15 | -0.36 | 0.06 | – | – | –
23 | i53 + D52E two-hybrid fusion (designed binder) | 0.28 | 0.43 | 0.14 | 0.04 | -0.3 | 0.37 | – | – | –
24 | i53 + S49G two-hybrid fusion (designed binder) | 0.02 | 0.27 | -0.23 | -0.31 | -0.57 | -0.05 | – | – | –
25 | i53 + D39L two-hybrid fusion (designed binder) | 0.06 | 0.49 | -0.38 | -2.16 | -2.9 | -1.42 | – | – | –
26 | i53 + K33N two-hybrid fusion (designed binder) | 0.29 | 0.48 | 0.1 | 0.24 | 0.06 | 0.41 | – | – | –
27 | i53 + D39Q two-hybrid fusion (designed binder) | -2.78 | -3.1 | -2.46 | 0.03 | -0.45 | 0.51 | – | – | –
28 | i53 + Q31H two-hybrid fusion (designed binder) | 0.19 | 0.66 | -0.29 | 0.11 | 0.13 | 0.09 | – | – | –
29 | i53 + I13F two-hybrid fusion (designed binder) | 0.53 | 1.04 | 0.03 | -0.09 | -0.26 | 0.07 | – | – | –
30 | i53 + K63V two-hybrid fusion (designed binder) | -0.13 | -0.15 | -0.11 | 0.01 | 0 | 0.02 | – | – | –
31 | i53 + E16N two-hybrid fusion (designed binder) | 0.11 | -0.32 | 0.54 | 0.26 | 0.34 | 0.18 | – | – | –
32 | i53 + R74M two-hybrid fusion (designed binder) | 1.04 | 1.16 | 0.91 | 0.68 | 0.68 | 0.68 | – | – | –
33 | i53 + T9S two-hybrid fusion (designed binder) | 0.4 | 0.34 | 0.47 | 0.18 | 0.19 | 0.17 | – | – | –
34 | i53 + E18S two-hybrid fusion (designed binder) | 0.48 | 0.47 | 0.49 | 0.33 | -0.01 | 0.67 | – | – | –
35 | i53 + Q41Y two-hybrid fusion (designed binder) | 0.68 | 0.73 | 0.64 | 0.47 | 0.4 | 0.53 | – | – | –
